Data reported in patent publication US10967068B2, “Stability-modulating linkers for use with antibody drug conjugates” (priority 2014, dated 2021).
*1 amine or outer side, *2 acyl side, *3 side chain or, on linkers, in order; H or OH if unused. Where a SMILES comes first, the peptide text is derived from it. [ ]: non-standard residue; d: D form. The star is where a group is joined. Dolaproine = CO[C@@H]([C@@H]1CCCN1)[C@@H](C)C(=O)O; Dil = CC[C@H](C)[C@H](NC)[C@@H](CC(=O)O)OC; PABC = O=C(OCc1ccc(N[*:1])cc1)[*:2]; Doe = c1ccc(C[C@H](N*)c2nccs2)cc1; Cit = NC(=O)NCCC[C@H](N)C(=O)O; Aib = CC(C)(N)C(=O)O; X2 = CC1(C(=O)*)COC1; Moc = COC(=O)*

Assay: In Vitro Stability Assay—Mouse Plasma
Type: in vitro ADME
Settings: attachment position L11B; for Conjugate stability (%): % DAR remaining after plasma 3 or 4.5 days; for DAR: before plasma incubation
Experimental: 100-200 ug of ADC were incubated in mouse plasma (provided by Bioreclamation) supplemented with 1×PBS to the final ADC concentration of 0.125 mg/mL. Following incubation for 3-7 days, samples were diluted with an equal volume of 1×PBS, and ADCs were isolated using Trop2 antigen coupled to CNBr-activated Sepharose (GE Healthcare) using standard protocols. Drug-antibody ratios were assessed before and after in vitro exposure using HIC methods and mass spectrometry.
DAR values for conjugates purified after plasma incubation were compared to DAR values prior to plasma treatment.

SMILES | DAR after plasma incubation for 3 to 4.5 days | Conjugate stability (%) | DAR
CC[C@H](C)[C@@H]([C@@H](CC(=O)N1CCC[C@H]1[C@H](OC)[C@@H](C)C(=O)N[C@@H](Cc1ccccc1)c1nccs1)OC)N(C)C(=O)[C@@H](NC(=O)C(C)(C)NC(=O)OCc1ccc(NC(=O)[C@H](CCCNC(N)=O)NC(=O)[C@@H](NC(=O)[C@H](CCCCN)NC(=O)CN)C(C)C)cc1)C(C)C [Example 29, glycyl-L-lysylvalyl-N-{4-[(8S,11S,12R)-11-[(2S)-butan-2-yl]-12-(2-{(2S)-2-[(1R,2R)-1-methoxy-2-methyl-3-oxo-3-{[(1S)-2-phenyl-1-(1,3-thiazol-2-yl)ethyl]amino}propyl]pyrrolidin-1-yl}-2-oxoethyl)-5,5,10-trimethyl-3,6,9-trioxo-8-(propan-2-yl)-2,13-dioxa-4,7,10-triazatetradec-1-yl]phenyl}-N˜5˜-carbamoyl-L-ornithinamide] (H-GKV[Cit][PABC][Aib]V[Dil][Dolaproine]-Doe) | 1.46 | 81% | 1.80
CC[C@H](C)[C@@H]([C@@H](CC(=O)N1CCC[C@H]1[C@H](OC)[C@@H](C)C(=O)N[C@@H](Cc1ccccc1)c1nccs1)OC)N(C)C(=O)[C@@H](NC(=O)C(C)(C)NC(=O)OCc1ccc(NC(=O)[C@H](CCCNC(N)=O)NC(=O)[C@@H](NC(=O)[C@H](CCCCN)NC(=O)C2(C)COC2)C(C)C)cc1)C(C)C [Example 30, N˜2˜-[(3-methyloxetan-3-yl)carbonyl]-L-lysyl-L-valyl-N-{4-[(8S,11S,12R)-11-[(2S)-butan-2-yl]-12-(2-{(2S)-2-[(1R,2R)-1-methoxy-2-methyl-3-oxo-3-{[(1S)-2-phenyl-1-(1,3-thiazol-2-yl)ethyl]amino}propyl]pyrrolidin-1-yl}-2-oxoethyl)-5,5,10-trimethyl-3,6,9-trioxo-8-(propan-2-yl)-2,13-dioxa-4,7,10-triazatetradec-1-yl]phenyl}-N˜5˜-carbamoyl-L-ornithinamide] (X2-KV[Cit][PABC][Aib]V[Dil][Dolaproine]-Doe) | 0.06 | 5% | 1.27
CC[C@H](C)[C@@H]([C@@H](CC(=O)N1CCC[C@H]1[C@H](OC)[C@@H](C)C(=O)N[C@@H](Cc1ccccc1)c1nccs1)OC)N(C)C(=O)[C@@H](NC(=O)C(C)(C)NC(=O)OCc1ccc(NC(=O)[C@H](CCCNC(N)=O)NC(=O)[C@@H](NC(=O)[C@H](CCCCN)NC(=O)C(C)(C)N)C(C)C)cc1)C(C)C [Example 31, 2-methylalanyl-L-lysylvalyl-N-{4-[(8S,11S,12R)-11-[(2S)-butan-2-yl]-12-(2-{(2S)-2-[(1R,2R)-1-methoxy-2-methyl-3-oxo-3-{[(1S)-2-phenyl-1-(1,3-thiazol-2-yl)ethyl]amino}propyl]pyrrolidin-1-yl}-2-oxoethyl)-5,5,10-trimethyl-3,6,9-trioxo-8-(propan-2-yl)-2,13-dioxa-4,7,10-triazatetradec-1-yl]phenyl}-N˜5˜-carbamoyl-L-ornithinamide] (H-[Aib]KV[Cit][PABC][Aib]V[Dil][Dolaproine]-Doe) | 0.03 | 2% | 1.77
CC[C@H](C)[C@@H]([C@@H](CC(=O)N1CCC[C@H]1[C@H](OC)[C@@H](C)C(=O)N[C@@H](Cc1ccccc1)c1nccs1)OC)N(C)C(=O)[C@@H](NC(=O)C(C)(C)NC(=O)OCc1ccc(NC(=O)[C@H](CCCNC(N)=O)NC(=O)[C@@H](NC(=O)[C@H](CCCCN)NC(=O)OC)C(C)C)cc1)C(C)C [Example 32, N˜2˜-(methoxycarbonyl)-L-lysylvalyl-N-{4-[(8S,11S,12R)-11-[(2S)-butan-2-yl]-12-(2-{(2S)-2-[(1R,2R)-1-methoxy-2-methyl-3-oxo-3-{[(1S)-2-phenyl-1-(1,3-thiazol-2-yl)ethyl]amino}propyl]pyrrolidin-1-yl}-2-oxoethyl)-5,5,10-trimethyl-3,6,9-trioxo-8-(propan-2-yl)-2,13-dioxa-4,7,10-triazatetradec-1-yl]phenyl}-N˜5˜-carbamoyl-L-ornithinamide] (Moc-KV[Cit][PABC][Aib]V[Dil][Dolaproine]-Doe) | 0.08 | 5% | 1.53
CC[C@H](C)[C@@H]([C@@H](CC(=O)N1CCC[C@H]1[C@H](OC)[C@@H](C)C(=O)N[C@@H](Cc1ccccc1)c1nccs1)OC)N(C)C(=O)[C@@H](NC(=O)C(C)(C)NC(=O)OCc1ccc(NC(=O)[C@H](CCCNC(N)=O)NC(=O)[C@@H](NC(=O)[C@@H](N)CCCCN)C(C)C)cc1)C(C)C [Example 33, L-lysylvalyl-N-{4-[(8S,11S,12R)-11-[(2S)-butan-2-yl]-12-(2-{(2S)-2-[(1R,2R)-1-methoxy-2-methyl-3-oxo-3-{[(1S)-2-phenyl-1-(1,3-thiazol-2-yl)ethyl]amino}propyl]pyrrolidin-1-yl}-2-oxoethyl)-5,5,10-trimethyl-3,6,9-trioxo-8-(propan-2-yl)-2,13-dioxa-4,7,10-triazatetradec-1-yl]phenyl}-N˜5˜-carbamoyl-L-ornithinamide] (H-KV[Cit][PABC][Aib]V[Dil][Dolaproine]-Doe) | 0.52 | 34% | 1.53
CC[C@H](C)[C@@H]([C@@H](CC(=O)N1CCC[C@H]1[C@H](OC)[C@@H](C)C(=O)N[C@@H](Cc1ccccc1)c1nccs1)OC)N(C)C(=O)[C@@H](NC(=O)C(C)(C)NC(=O)OCc1ccc(NC(=O)[C@H](CCCNC(N)=O)NC(=O)[C@@H](NC(=O)[C@H](CCCCN)NC(=O)[C@H](C)N)C(C)C)cc1)C(C)C [Example 34, L-alanyl-L-lysylvalyl-N-{4-[(8S,11S,12R)-11-[(2S)-butan-2-yl]-12-(2-{(2S)-2-[(1R,2R)-1-methoxy-2-methyl-3-oxo-3-{[(1S)-2-phenyl-1-(1,3-thiazol-2-yl)ethyl]amino}propyl]pyrrolidin-1-yl}-2-oxoethyl)-5,5,10-trimethyl-3,6,9-trioxo-8-(propan-2-yl)-2,13-dioxa-4,7,10-triazatetradec-1-yl]phenyl}-N˜5˜-carbamoyl-L-ornithinamide] (H-AKV[Cit][PABC][Aib]V[Dil][Dolaproine]-Doe) | 0.86 | 50% | 1.72
CC[C@H](C)[C@@H]([C@@H](CC(=O)N1CCC[C@H]1[C@H](OC)[C@@H](C)C(=O)N[C@@H](Cc1ccccc1)c1nccs1)OC)N(C)C(=O)[C@@H](NC(=O)C(C)(C)NC(=O)OCc1ccc(NC(=O)[C@H](CCCNC(N)=O)NC(=O)[C@@H](NC(=O)[C@H](CCCCN)NC(=O)[C@@H](C)N)C(C)C)cc1)C(C)C [Example 35, D-alanyl-L-lysylvalyl-N-{4-[(8S,11S,12R)-11-[(2S)-butan-2-yl]-12-(2-{(2S)-2-[(1R,2R)-1-methoxy-2-methyl-3-oxo-3-{[(1S)-2-phenyl-1-(1,3-thiazol-2-yl)ethyl]amino}propyl]pyrrolidin-1-yl}-2-oxoethyl)-5,5,10-trimethyl-3,6,9-trioxo-8-(propan-2-yl)-2,13-dioxa-4,7,10-triazatetradec-1-yl]phenyl}-N˜5˜-carbamoyl-L-ornithinamide] (H-[dA]KV[Cit][PABC][Aib]V[Dil][Dolaproine]-Doe) | 1.07 | 58% | 1.82
CC[C@H](C)[C@@H]([C@@H](CC(=O)N1CCC[C@H]1[C@H](OC)[C@@H](C)C(=O)N[C@@H](Cc1ccccc1)c1nccs1)OC)N(C)C(=O)[C@@H](NC(=O)C(C)(C)NC(=O)OCc1ccc(NC(=O)[C@H](CCCNC(N)=O)NC(=O)[C@@H](NC(=O)[C@H](CCCCN)NC(=O)CNC(C)=O)C(C)C)cc1)C(C)C [Example 37, N-acetylglycyl-L-lysyl-L-valyl-N-{4-[(8S,11S,12R)-11-[(2S)-butan-2-yl]-12-(2-{(2S)-2-[(1R,2R)-1-methoxy-2-methyl-3-oxo-3-{[(1S)-2-phenyl-1-(1,3-thiazol-2-yl)ethyl]amino}propyl]pyrrolidin-1-yl}-2-oxoethyl)-5,5,10-trimethyl-3,6,9-trioxo-8-(propan-2-yl)-2,13-dioxa-4,7,10-triazatetradec-1-yl]phenyl}-N˜5˜-carbamoyl-L-ornithinamide] (Ac-GKV[Cit][PABC][Aib]V[Dil][Dolaproine]-Doe) | 0.85 | 44% | 1.94
CC[C@H](C)[C@@H]([C@@H](CC(=O)N1CCC[C@H]1[C@H](OC)[C@@H](C)C(=O)N[C@@H](Cc1ccccc1)c1nccs1)OC)N(C)C(=O)[C@@H](NC(=O)C(C)(C)NC(=O)OCc1ccc(NC(=O)[C@H](CCCNC(N)=O)NC(=O)[C@@H](NC(=O)[C@H](CCCCN)NC(=O)[C@@H](N)CO)C(C)C)cc1)C(C)C [Example 38, L-seryl-L-lysylvalyl-N-{4-[(8S,11S,12R)-11-[(2S)-butan-2-yl]-12-(2-{(2S)-2-[(1R,2R)-1-methoxy-2-methyl-3-oxo-3-{[(1S)-2-phenyl-1-(1,3-thiazol-2-yl)ethyl]amino}propyl]pyrrolidin-1-yl}-2-oxoethyl)-5,5,10-trimethyl-3,6,9-trioxo-8-(propan-2-yl)-2,13-dioxa-4,7,10-triazatetradec-1-yl]phenyl}-N˜5˜-carbamoyl-L-ornithinamide] (H-SKV[Cit][PABC][Aib]V[Dil][Dolaproine]-Doe) | 1.32 | 90% | 1.47
